Measurements published in patent US10822593B2, “Alcohol dehydrogenase mutant and application thereof in synthesis of diaryl chiral alcohols” (priority 2018, dated 2020).

What was measured:
Format in all cases: biochemical
[1] = tested on: O=C(c1ccc(Cl)cc1)c1ccccn1; experiment: Kinetic analysis, reduction of CPMK by mutant M1; settings: other: substrate CPMK, coenzyme NADPH, pH 7.0, 30° C.
Experimental: In an embodiment of the present disclosure, the mutant includes the substitution of valine for serine at position 196 of the alcohol dehydrogenase with the amino acid sequence shown in SEQ ID No. 2, which is named M1.
(§1) Adopting a total reaction system of 200 μL, including: 1.0 mM NADPH, 1.0 mM substrate CPMK and sodium phosphate buffer (PBS, 100 mM, pH 7.0), fully and evenly mixing, maintaining at 30° C. for 2 min, adding an appropriate amount of enzyme solution, and detecting the change in light absorption at 340 nm.
(§2) The enzyme activity was calculated by the following formula: […]
(§3) in the formula, EW is the change in absorbance at 340 nm in 1 min; V is the volume of a reaction solution in mL; 6220 is the molar extinction coefficient of NADPH in L/(mol·cm); and 1 is the optical path distance in cm. One activity unit (U) corresponds to the amount of enzyme required to catalyze the oxidation of 1 μmol NADPH per minute under the above conditions.
(§4) A column used for purification was a nickel affinity column HisTrap FF crude, and purification was achieved through affinity chromatography using a histidine tag on recombinant protein. The nickel column was equilibrated with a solution A first, a crude enzyme solution was loaded, a penetrating peak was further eluted off using the solution A, and after equilibrium, a solution B (20 mM sodium phosphate, 500 mM NaCl, and 1000 mM imidazole, pH 7.4) was used for gradient elution to elute off the recombinant protein bound to the nickel column, so as to obtain the recombinant alcohol dehydrogenase mutant. The purified protein was subjected to activity measurement (CPMK as substrate, and NADPH as coenzyme) and SDS-PAGE analysis. […] The purified alcohol dehydrogenase protein was then replaced into a Tris-HCl (100 mM, pH 7.0) buffer using a Hi Trap Desalting column (GE Healthcare).
(§5) The activity of KpADH at different substrate concentrations and coenzyme concentrations was determined, and a double reciprocal curve was made based on the reciprocal of activity and substrate concentration to calculate kinetic parameters.

[2] = tested on: O=C(c1ccc(Cl)cc1)c1ccccn1; experiment: Kinetic analysis, reduction of CPMK by wild type KpADH; settings: other: substrate CPMK, coenzyme NADPH, pH 7.0, 30° C.
Experimental: as §1, §2, §3, §4, §5

[3] = tested on: O=C(c1ccc(Cl)cc1)c1ccccn1; experiment: Kinetic analysis, reduction of CPMK by mutant M5; settings: other: substrate CPMK, coenzyme NADPH, pH 7.0, 30° C.
Experimental: In an embodiment of the present disclosure, the mutant includes the substitution of glycine for serine at position 196 of the alcohol dehydrogenase with the amino acid sequence shown in SEQ ID No. 2, and the substitution of valine for phenylalanine at position 161, which is named M5.
as §1, §2, §3, §4, §5

[4] = target: alcohol dehydrogenase KpADH, wild type, SEQ ID No. 2 (Vanderwaltozyma polyspora, UniProt A7TM80); experiment: Kinetic analysis, reduction of CPMK by wild type KpADH; settings: substrate CPMK, coenzyme NADPH, pH 7.0, 30° C.
Experimental: as §1, §2, §3, §4, §5

[5] = tested on: O=C(c1ccc(Cl)cc1)c1ccccn1; experiment: Kinetic analysis, reduction of CPMK by mutant M3; settings: other: substrate CPMK, coenzyme NADPH, pH 7.0, 30° C.
Experimental: In an embodiment of the present disclosure, the mutant includes the substitution of proline for serine at position 196 of the alcohol dehydrogenase with the amino acid sequence shown in SEQ ID No. 2, which is named M3.
as §1, §2, §3, §4, §5

[6] = tested on: O=C(c1ccc(Cl)cc1)c1ccccn1; experiment: Kinetic analysis, reduction of CPMK by mutant M2; settings: other: substrate CPMK, coenzyme NADPH, pH 7.0, 30° C.
Experimental: In an embodiment of the present disclosure, the mutant includes the substitution of tryptophan for serine at position 196 of the alcohol dehydrogenase with the amino acid sequence shown in SEQ ID No. 2, which is named M2.
as §1, §2, §3, §4, §5

[7] = tested on: O=C(c1ccc(Cl)cc1)c1ccccn1; experiment: Kinetic analysis, reduction of CPMK by mutant M4; settings: other: substrate CPMK, coenzyme NADPH, pH 7.0, 30° C.
Experimental: In an embodiment of the present disclosure, the mutant includes the substitution of glycine for serine at position 196 of the alcohol dehydrogenase with the amino acid sequence shown in SEQ ID No. 2, which is named M4.
as §1, §2, §3, §4, §5

Compound: alcohol dehydrogenase KpADH (SEQ ID No. 2) mutant M1, S196V (Vanderwaltozyma polyspora DSM 70294; S196V)
- Km [1]: 720 µM
- Vmax [1]: 21.3 µmol/min/mg
- kcat [1]: 17 s⁻¹
- kcat/Km [1]: 23600 M⁻¹ s⁻¹

Compound: alcohol dehydrogenase KpADH, wild type, SEQ ID No. 2 (Vanderwaltozyma polyspora DSM 70294)
- Km [2]: 410 µM
- Vmax [2]: 17.9 µmol/min/mg
- kcat [2]: 11.8 s⁻¹
- kcat/Km [2]: 28900 M⁻¹ s⁻¹

Compound: alcohol dehydrogenase KpADH (SEQ ID No. 2) mutant M5, S196G/F161V (Vanderwaltozyma polyspora DSM 70294; F161V/S196G)
- Km [3]: 690 µM
- Vmax [3]: 17.7 µmol/min/mg
- kcat [3]: 11.8 s⁻¹
- kcat/Km [3]: 17100 M⁻¹ s⁻¹

Compound: O=C(c1ccc(Cl)cc1)c1ccccn1 [CPMK, (4-chlorophenyl)-(pyridin-2-yl)-methanone]
- Kcat/Km [4]: 28900 M⁻¹ s⁻¹

Compound: alcohol dehydrogenase KpADH (SEQ ID No. 2) mutant M3, S196P (Vanderwaltozyma polyspora DSM 70294; S196P)
- Km [5]: 604 µM
- Vmax [5]: 22.3 µmol/min/mg
- kcat [5]: 14.8 s⁻¹
- kcat/Km [5]: 24600 M⁻¹ s⁻¹

Compound: alcohol dehydrogenase KpADH (SEQ ID No. 2) mutant M2, S196W (Vanderwaltozyma polyspora DSM 70294; S196W)
- Km [6]: 702 µM
- Vmax [6]: 21.3 µmol/min/mg
- kcat [6]: 14.2 s⁻¹
- kcat/Km [6]: 20300 M⁻¹ s⁻¹

Compound: alcohol dehydrogenase KpADH (SEQ ID No. 2) mutant M4, S196G (Vanderwaltozyma polyspora DSM 70294; S196G)
- Km [7]: 730 µM
- Vmax [7]: 26.5 µmol/min/mg
- kcat [7]: 17.6 s⁻¹
- kcat/Km [7]: 24100 M⁻¹ s⁻¹
